# Test results published in patent US20260242839A1, “GLYCOSIDE PRODUCT BIOSYNTHESIS AND RECOVERY” (Manus Bio Inc., priority 2023, published 2026).
# Changes are numbered by the printed parent chain. Names and notes keep the numbering of the source.
# B1: ins_A2_T3_R: SEQ ID NO: 14 with insertion of Arg between A2 and T3 (protein)
# chain: MARTKNSSGMSLAERFWLTLSRSSLVVGRSCVEFEPETVPLLSTLRGKPITFLGLMPPLHEGRREDGEDATVRWLDAQPAKSVVYVALGSEVPLGVEKVHELALGLELAGTRFLWALRKPTGVSDADLLPAGFEERTRGRGVVATRWVPQMSILAHAAVGAFLTHCGWNSTIEGLMFGHPLIMLPITGDQGPNARLIEAKNAGLQVARNDGDGSFDREGVAAAIRAVAVEEESSKVFQAKAKKLQEIVADMACHERYIDGFIQQLRSYKDDSGYSSSYAAAAGMHVVICPWLAFGHLLPCLDLAQRLASRGHRVSFVSTPRNISRLPPVRPALAPLVAFVALPLPRVEGLPDGAESTNDVPHDRPDMVELHRRAFDGLAAPFSEFLGTACADWVIVDSFHHWAAAAALEHKVPCAMMLLGSAEMIASIADERLEHAETESPAAAGQGRPAAAPTFEVARMKLIR
# B2: A143W: mutation to UGT enzyme of SEQ ID NO: 14 (protein)
# chain: MATKNSSGMSLAERFWLTLSRSSLVVGRSCVEFEPETVPLLSTLRGKPITFLGLMPPLHEGRREDGEDATVRWLDAQPAKSVVYVALGSEVPLGVEKVHELALGLELAGTRFLWALRKPTGVSDADLLPAGFEERTRGRGVVWTRWVPQMSILAHAAVGAFLTHCGWNSTIEGLMFGHPLIMLPITGDQGPNARLIEAKNAGLQVARNDGDGSFDREGVAAAIRAVAVEEESSKVFQAKAKKLQEIVADMACHERYIDGFIQQLRSYKDDSGYSSSYAAAAGMHVVICPWLAFGHLLPCLDLAQRLASRGHRVSFVSTPRNISRLPPVRPALAPLVAFVALPLPRVEGLPDGAESTNDVPHDRPDMVELHRRAFDGLAAPFSEFLGTACADWVIVDSFHHWAAAAALEHKVPCAMMLLGSAEMIASIADERLEHAETESPAAAGQGRPAAAPTFEVARMKLIR
# B3: Q244K: mutation to UGT enzyme of SEQ ID NO: 14 (protein)
# chain: B2 chain with W143A, Q244K
# B4: Q262E: mutation to UGT enzyme of SEQ ID NO: 14 (protein)
# chain: B2 chain with W143A, Q262E
# B5: G94R: mutation to UGT enzyme of SEQ ID NO: 14 (protein)
# chain: B2 chain with G94R, W143A
# B6: R145S: mutation to UGT enzyme of SEQ ID NO: 14 (protein)
# chain: B2 chain with W143A, R145S
# B7: Y267H: mutation to UGT enzyme of SEQ ID NO: 14 (protein)
# chain: B2 chain with W143A, Y267H
# B8: C299A: mutation to UGT enzyme of SEQ ID NO: 14 (protein)
# chain: B2 chain with W143A, C299A
# B9: C252R: mutation to UGT enzyme of SEQ ID NO: 14 (protein)
# chain: B2 chain with W143A, C252R
# B10: T37S: mutation to UGT enzyme of SEQ ID NO: 14 (protein)
# chain: B2 chain with T37S, W143A
# B11: R45F: mutation to UGT enzyme of SEQ ID NO: 14 (protein)
# chain: B2 chain with R45F, W143A
# B12: D269R: mutation to UGT enzyme of SEQ ID NO: 14 (protein)
# chain: B2 chain with W143A, D269R
# B13: T453F: mutation to UGT enzyme of SEQ ID NO: 14 (protein)
# chain: B2 chain with W143A, T453F
# B14: A238E: mutation to UGT enzyme of SEQ ID NO: 14 (protein)
# chain: B2 chain with W143A, A238E
# B15: V38F: mutation to UGT enzyme of SEQ ID NO: 14 (protein)
# chain: B2 chain with V38F, W143A
# B16: I427F: mutation to UGT enzyme of SEQ ID NO: 14 (protein)
# chain: B2 chain with W143A, I427F
# B17: L11I: mutation to UGT enzyme of SEQ ID NO: 14 (protein)
# chain: B2 chain with L11I, W143A
# B18: T186I: mutation to UGT enzyme of SEQ ID NO: 14 (protein)
# chain: B2 chain with W143A, T186I
# B19: P39T: mutation to UGT enzyme of SEQ ID NO: 14 (protein)
# chain: B2 chain with P39T, W143A
# B20: V26I: mutation to UGT enzyme of SEQ ID NO: 14 (protein)
# chain: B2 chain with V26I, W143A
# B21: V95Q: mutation to UGT enzyme of SEQ ID NO: 14 (protein)
# chain: B2 chain with V95Q, W143A
# B22: L417F: mutation to UGT enzyme of SEQ ID NO: 14 (protein)
# chain: B2 chain with W143A, L417F
# B23: T3R: mutation to UGT enzyme of SEQ ID NO: 14 (protein)
# chain: B2 chain with T3R, W143A
# B24: M250K_A251E_C252L: mutation to UGT enzyme of SEQ ID NO: 14 (protein)
# chain: B2 chain with W143A, M250K, A251E, C252L
# B25: T43D: mutation to UGT enzyme of SEQ ID NO: 14 (protein)
# chain: B2 chain with T43D, W143A
# B26: I152L: mutation to UGT enzyme of SEQ ID NO: 14 (protein)
# chain: B2 chain with W143A, I152L
# B27: H99T: mutation to UGT enzyme of SEQ ID NO: 14 (protein)
# chain: B2 chain with H99T, W143A
# B28: S29T: mutation to UGT enzyme of SEQ ID NO: 14 (protein)
# chain: B2 chain with S29T, W143A
# B29: L417M: mutation to UGT enzyme of SEQ ID NO: 14 (protein)
# chain: B2 chain with W143A, L417M
# B30: V31P: mutation to UGT enzyme of SEQ ID NO: 14 (protein)
# chain: B2 chain with V31P, W143A
# Test system: steviol glycoside
# Test: steviol glycoside bioconversion by E. coli expressing individual mutations of UGT SEQ ID NO: 14
# Type: cell-based
# Details: fold improvement of % conversion vs parent UGT SEQ ID NO: 14; stevia leaf extract and glucose fed; 37° C., 48 hr
# Experimental: Fold improvement is with respect to % steviol glycoside conversion of the parent UGT enzyme of SEQ ID NO: 14. The UGT enzyme of SEQ ID NO: 15 has the following mutations from SEQ ID NO: 14: ins_A2_T3_RR, H59P, A238E, L417F. Stevia leaf extract and glucose were fed to the bioconversion strains. Bioconversion took place at 37° C. for 48 hr. Data were quantified by reverse phase LC DAD to quantify conversion of steviol glycosides.
# Fold improvement (FI) is with respect to % steviol glycoside conversion.
Molecule,FI %Stevioside→rebE,FI %rebA→rebD
B1,1.9,1.6
B2,1.3,1.3
B3,1.25,1.16
B4,2.0,1.7
B5,1.12,1.13
B6,1.06,1.14
B7,1.8,1.6
B8,0.76,1.03
B9,1.25,1.19
B10,1.35,1.17
B11,1.35,1.18
B12,2.0,1.7
B13,1.32,1.20
B14,1.9,1.6
B15,1.33,1.19
B16,1.15,1.24
B17,1.39,1.16
B18,1.48,1.24
B19,1.31,0.98
B20,1.18,1.16
B21,1.8,1.6
B22,1.34,1.24
B23,1.9,1.6
B24,1.40,1.23
B25,1.29,1.08
B26,1.09,1.15
B27,0.76,1.04
B28,1.05,1.00
B29,1.02,1.02
B30,1.22,1.08
